B1: TPR t1 (parent)
chain: GACCAAUCUGCCCUCAGAGCUCGAGAACAUCUUCGGAUGCAGAGGAGGCAGGCUUCGGUGGCGCGAUAGCGCCAACGUCCUCAACCUCCAAUGCAUCCCACCACAUGAUGAUGCCUGAAGAGCCUUGGUUUUUUG

Variants of: B1
Test: polymerase ribozyme fitness, log enrichment relative to wild type (log ratio); higher = more active; in vitro selection for triplet polymerase activity
Outline: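 Genotype fitness is the logarithm of its enrichment divided by wild-type enrichment, using inverse-variance-weighted averages of replicates. That logarithm is base 2. Enrichment was measured by Illumina sequencing of input and output libraries from one triplicate in vitro selection round, with frozen incubation at −7 °C, on PCR-built, transcribed mutant libraries of each subunit of a heterodimeric triplet polymerase ribozyme, retaining genotypes with ≥10 input reads and ≥1 read per output.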

| Variant | polymerase ribozyme fitness (log ratio) |
| --- | --- |
| C114A G122A | -2.53 |
| C114A G128U | -3.33 |
| C114A G128C | -3.78 |
| A118U G120U | -0.245 |
| U112G G128C | -2.91 |
| C101A G117U G122A U125A | -4.5 |
| C102A G120U U130G | -2.39 |
| A119U U132A | -0.132 |
| U112A G120A | 0.565 |
| C115U U126G | -3.36 |
| A118U U133A | -1.21 |
| U109C A118U | -4.34 |
| A100U C101U C104A | -2.87 |
| G117C G120C | -3.46 |
| G117C C124A | -1.5 |
| C98A A111U | -5.78 |
| C98U G110C | -4.91 |
| C98U G110A | -2.39 |
| G113A A119U U126A | -3.89 |
| G110A G122A C123U | -2.1 |
| G107A U130C | -4.85 |
| C99A U112A G120A | -5.93 |
| C115A U126C | -0.397 |
| G113U C124G | -1.38 |

| Variant | polymerase ribozyme fitness (log ratio) |
| --- | --- |
| G113C U133A | -2.13 |
| U109A | -5.11 |
| U109C | -2.41 |
| U109G | -4.35 |
| C101G G120C | -0.696 |
| A118G | -0.226 |
| A118C | -2.45 |
| A118U | 0.282 |
| C115G U126C U132A | -4.83 |
| A111G C114G C123U | -6.41 |
| A103C U132A | -4.12 |
| C101U U106A | -0.286 |
| G110C G117U | -5.43 |
| C115G G128U | -5 |
| A111U G113A | -4.49 |
| C114A U116G | -3.78 |
| A105U G113A | -4.72 |
| G117A C123A | -0.382 |
| C97U C98A | -4.41 |
| C98A A100G C114A | -6.06 |
| C99U C115G | -4.9 |
| C97U U106A U132G U133A | 0.00837 |
| C98U U112A | -1.61 |
| U106G C123U G127A | -3.09 |

| Variant | polymerase ribozyme fitness (log ratio) |
| --- | --- |
| G120A | 0.66 |
| G120U | 0.195 |
| G120C | 1.05 |
| C98U U116A A119G | -0.385 |
| C97U G110A | -1.67 |
| G120C G135U | -0.76 |
| G120C G135A | 0.738 |
| C115A G122A | -0.767 |
| C99A G127C | -5.7 |
| U109A G120C | -4 |
| C114U U129A | -3.98 |
| C114U U129G | -4.52 |
| C99A C102A U109A G127C | -6.24 |
| G117C U131A | -4.01 |
| U112C U116A | -1.02 |
| C97U U129A | -2.18 |
| C123G U133A | 2.19 |
| G110A G127C | -1.94 |
| G110C A118U | -4.26 |
| A100U A111G | 0.222 |
| G117C A121G U130C | 0.325 |
| C99G G120A | -7.03 |
| G107A A108G G120A C124A | -3.55 |
| C104U G110A | -0.458 |

| Variant | polymerase ribozyme fitness (log ratio) |
| --- | --- |
| C123U C124A | 2.14 |
| G113A G135U | -2.05 |
| C123G U129A | -1.13 |
| C101U U116C A119G U129A | 1.01 |
| C102A C123G | -0.232 |
| G117A U130A | -2.15 |
| A100U G113C | -2.85 |
| G110C G120U | -4.38 |
| C115U U131A | -0.58 |
| U112C C123A | -0.0765 |
| U112A G135A | 2.15 |
| G120A U132C | 0.977 |
| C97A C114U | -5.03 |
| C123A C124U | 2.15 |
| C101G C115U | -3.55 |
| C98U U125G | -2.35 |
| C99U G117U | -3.93 |
| G120U C123G | 1.47 |
| A103C G107A U112G G113A | -6.72 |
| G110U A121C | -2.17 |
| U116G G117C | -2.43 |
| C115A G120U | -0.0245 |
| A100C C101G C104A C124A | -3.18 |
| C98A U112G | -5.66 |

| Variant | polymerase ribozyme fitness (log ratio) |
| --- | --- |
| C101U G117C | -3.39 |
| A108U G120U | -5.29 |
| G107U G113A | -3.27 |
| A103U U106G | -4.14 |
| C97U G113A | -1.5 |
| C101A U106C G110C U134G | -4.82 |
| C115U G128A | -2.99 |
| C115A C124U | 0.564 |
| G117U U129A | -3.5 |
| C101A C102A | -5 |
| C102A C115G | -3.72 |
| A103C C104A | -2.67 |
| C104A U116A | -5.02 |
| A111C G122U C123U U130C | -0.737 |
| G107C G110A G117A U130C | -6.86 |
| C104G U106A C124G | -3.47 |
| A100C G110C | -4.94 |
| C101G C102A U130C | -4.99 |
| C101U G110C | -3.42 |
| C114A G117U | -6.19 |
| C104A U112A | 0.162 |
| A108U C123G | -3.08 |
| A108U C123A | -5.15 |
| C97G G127U | -3.75 |

| Variant | polymerase ribozyme fitness (log ratio) |
| --- | --- |
| C99U U132C | -3.53 |
| C114G C124A | -1.15 |
| G120U G128C | -1.03 |
| A121U U125A | 1.66 |
| U116A A121G | 0.178 |
| G113C C124U G127C | -3.7 |
| A100U U125G | -0.739 |
| G127A U129A | -1.26 |
| U106A C124A | 1.81 |
| C102G U112A | -5.7 |
| G110C C115U | -4.71 |
| A105U C124U | -0.354 |
| C98U U116C | -1.99 |
| G117U A118U U130C | -3.28 |
| G110U G117C | -5.42 |
| C114U U126A | -3.35 |
| C115U U133A | -0.794 |
| C101G G122C C124A U126A | -3.82 |
| A105U U116C | -3.7 |
| C114G G127A | -4.97 |
| A111C U131A | -1.12 |
| G117U A119U C123U | -0.29 |
| U96C A118U | 1.27 |
| A105C G120A A121U | -1.51 |

| Variant | polymerase ribozyme fitness (log ratio) |
| --- | --- |
| G113U U133C | -2.64 |
| G117U G120A | -2.24 |
| C104A A108G U112A A118G G122U | -5.36 |
| A100C C104U | -0.176 |
| U96C U106A | -1.43 |
| G110A G113A | -3.95 |
| A121U G135C | 2.99 |
| A105U U126A U129A U130G | -6 |
| C102A G135U | -3.13 |
| G113U U129A | -3.53 |
| U96A U131G | -1.96 |
| A111U U125A | -3.84 |
| A121C G128C | -0.622 |
| A121C G128A | 0.0676 |
| U116A U125A | -3.4 |
| G120U G135C | 1.16 |
| G110A G117U | -4.78 |
| A103G U112G | -4.71 |
| U112G G127C U130C | -0.498 |
| G110A C124G G128C | -3.19 |
| C99U U133A | -2.99 |
| G113A C115U | -3.6 |
| C99A U132C | -4.94 |

From the RNAGym collection of RNA variant scans (doi:10.1073/pnas.2313332121)
